Results from paper PMC4720517, “Structural basis for activation, assembly and membrane binding of ESCRT-III Snf7 filaments” (eLife, 2015).

T1: full-length Snf7^(R52E E95K E102K E109K) (Saccharomyces cerevisiae, UniProt P39929 1-240, R52E | E95K | E102K | E109K)
T1 construct: Snf7 (Vps32), S. cerevisiae, full length, charge inversion on α2/3; source: E. coli BL21 or C41, purified (TALON, Superdex-200)
T1 sequence (looked up): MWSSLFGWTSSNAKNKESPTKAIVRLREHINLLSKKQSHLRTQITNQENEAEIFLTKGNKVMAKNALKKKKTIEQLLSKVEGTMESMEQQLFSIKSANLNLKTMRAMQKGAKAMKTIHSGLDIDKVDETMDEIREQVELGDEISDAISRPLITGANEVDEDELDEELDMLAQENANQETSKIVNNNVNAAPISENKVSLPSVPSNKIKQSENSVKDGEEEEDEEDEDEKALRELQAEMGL

B1: full-length Snf7^(R52E E88C H118C), MTSL-labeled (natural protein, Saccharomyces cerevisiae, UniProt P39929 1-240, looked up)
chain: MWSSLFGWTSSNAKNKESPTKAIVRLREHINLLSKKQSHLRTQITNQENEAEIFLTKGNKVMAKNALKKKKTIEQLLSKVEGTMESMCQQLFSIESANLNLETMRAMQEGAKAMKTICSGLDIDKVDETMDEIREQVELGDEISDAISRPLITGANEVDEDELDEELDMLAQENANQETSKIVNNNVNAAPISENKVSLPSVPSNKIKQSENSVKDGEEEEDEEDEDEKALRELQAEMGL
modifications: MTSL nitroxide spin label on cysteines 88 and 118
notes: Snf7 (Vps32), S. cerevisiae, full length; also called double-labeled Snf7^(R52E E88C H118C); source: E. coli BL21 or C41, purified (TALON, Superdex-200)
B2: full-length Snf7^(R52E K60C A66C), MTSL-labeled (natural protein, Saccharomyces cerevisiae, UniProt P39929 1-240, looked up)
chain: MWSSLFGWTSSNAKNKESPTKAIVRLREHINLLSKKQSHLRTQITNQENEAEIFLTKGNCVMAKNCLKKKKTIEQLLSKVEGTMESMEQQLFSIESANLNLETMRAMQEGAKAMKTIHSGLDIDKVDETMDEIREQVELGDEISDAISRPLITGANEVDEDELDEELDMLAQENANQETSKIVNNNVNAAPISENKVSLPSVPSNKIKQSENSVKDGEEEEDEEDEDEKALRELQAEMGL
modifications: MTSL nitroxide spin label on cysteines 60 and 66
notes: Snf7 (Vps32), S. cerevisiae, full length; also called double-labeled Snf7^(R52E K60C A66C); source: E. coli BL21 or C41, purified (TALON, Superdex-200)

Experiments:
[1] = target: the molecule itself; test: crystal structure; Snf7^core crystals, conformation A (2.4 Å) and B (1.6 Å), space group P2_1, one molecule in the asymmetric unit; protofilaments formed in the crystal lattice; grown at pH 5.5 (MES:NaOH, NaCl, PEG20,000), 4 °C
[2] = target: the molecule itself; test: negative stain TEM; recombinant Snf7 proteins, protofilament formation seen by negative stain transmission electron microscopy; as in Henne et al., 2012
[3] = target: B1; test: DEER (pulsed dipolar ESR spectroscopy); MTSL-labeled full-length Snf7 proteins (10-30 μM), alone or diluted with unlabeled Snf7^R52E, incubated with DOPC/DOPS/PI(3)P liposomes at room temperature for 15 min, pelleted by ultracentrifugation; 150 mM NaCl, 20 mM HEPES pD7.4; DEER at 60 K; conditions: both partners purified
[4] = target: B2; test: as above; conditions: both partners purified
[5] = target: T1, full-length Snf7^(R52E E95K E102K E109K); test: negative stain TEM; recombinant Snf7 proteins, protofilament formation seen by negative stain transmission electron microscopy; as in Henne et al., 2012; conditions: both partners purified

Row | Binder | binding result [2] | further results
1 | Snf7^core (Saccharomyces cerevisiae Snf7 residues 12-150) (domain or fragment, UniProt P39929 12-150, looked up, Snf7 (Vps32), S. cerevisiae, core domain, residues 12-150; One molecule in the asymmetric unit; the protofilament is built by the crystal lattice; also called Snf7 core domain; open conformation A; source: E. coli Rosetta, purified (TALON, Superdex-200); not shown: His6-Sumo, N-terminal, cleaved) NAKNKESPTKAIVRLREHINLLSKKQSHLRTQITNQENEARIFLTKGNKVMAKNALKKKKTIEQLLSKVEGTMESMEQQLFSIESANLNLETMRAMQEGAKAMKTIHSGLDIDKVDETMDEIREQVELGDEISDAISRP |  | binding result [1]: binds
2 | B1 | binds | 
3 | full-length Snf7^R52E (natural protein, Saccharomyces cerevisiae, UniProt P39929 1-240, looked up, purification as in Henne et al., 2012; also called unlabeled Snf7^R52E; source: E. coli BL21 or C41, purified (TALON, Superdex-200)) MWSSLFGWTSSNAKNKESPTKAIVRLREHINLLSKKQSHLRTQITNQENEAEIFLTKGNKVMAKNALKKKKTIEQLLSKVEGTMESMEQQLFSIESANLNLETMRAMQEGAKAMKTIHSGLDIDKVDETMDEIREQVELGDEISDAISRPLITGANEVDEDELDEELDMLAQENANQETSKIVNNNVNAAPISENKVSLPSVPSNKIKQSENSVKDGEEEEDEEDEDEKALRELQAEMGL | binds | binding result [3]: binds; binding result [4]: binds
4 | full-length Snf7^(R52E T20C), MTSL-labeled (natural protein, Saccharomyces cerevisiae, UniProt P39929 1-240, looked up, MTSL nitroxide spin label on cysteine 20, Snf7 (Vps32), S. cerevisiae, full length; source: E. coli BL21 or C41, purified (TALON, Superdex-200)) MWSSLFGWTSSNAKNKESPCKAIVRLREHINLLSKKQSHLRTQITNQENEAEIFLTKGNKVMAKNALKKKKTIEQLLSKVEGTMESMEQQLFSIESANLNLETMRAMQEGAKAMKTIHSGLDIDKVDETMDEIREQVELGDEISDAISRPLITGANEVDEDELDEELDMLAQENANQETSKIVNNNVNAAPISENKVSLPSVPSNKIKQSENSVKDGEEEEDEEDEDEKALRELQAEMGL | binds | 
5 | full-length Snf7^(R52E K35C), MTSL-labeled (natural protein, Saccharomyces cerevisiae, UniProt P39929 1-240, looked up, MTSL nitroxide spin label on cysteine 35, Snf7 (Vps32), S. cerevisiae, full length; source: E. coli BL21 or C41, purified (TALON, Superdex-200)) MWSSLFGWTSSNAKNKESPTKAIVRLREHINLLSCKQSHLRTQITNQENEAEIFLTKGNKVMAKNALKKKKTIEQLLSKVEGTMESMEQQLFSIESANLNLETMRAMQEGAKAMKTIHSGLDIDKVDETMDEIREQVELGDEISDAISRPLITGANEVDEDELDEELDMLAQENANQETSKIVNNNVNAAPISENKVSLPSVPSNKIKQSENSVKDGEEEEDEEDEDEKALRELQAEMGL | binds | 
6 | full-length Snf7^(R52E E88C), MTSL-labeled (natural protein, Saccharomyces cerevisiae, UniProt P39929 1-240, looked up, MTSL nitroxide spin label on cysteine 88, Snf7 (Vps32), S. cerevisiae, full length; source: E. coli BL21 or C41, purified (TALON, Superdex-200)) MWSSLFGWTSSNAKNKESPTKAIVRLREHINLLSKKQSHLRTQITNQENEAEIFLTKGNKVMAKNALKKKKTIEQLLSKVEGTMESMCQQLFSIESANLNLETMRAMQEGAKAMKTIHSGLDIDKVDETMDEIREQVELGDEISDAISRPLITGANEVDEDELDEELDMLAQENANQETSKIVNNNVNAAPISENKVSLPSVPSNKIKQSENSVKDGEEEEDEEDEDEKALRELQAEMGL | binds | 
7 | full-length Snf7^(R52E K60C), MTSL-labeled (natural protein, Saccharomyces cerevisiae, UniProt P39929 1-240, looked up, MTSL nitroxide spin label on cysteine 60, Snf7 (Vps32), S. cerevisiae, full length; source: E. coli BL21 or C41, purified (TALON, Superdex-200)) MWSSLFGWTSSNAKNKESPTKAIVRLREHINLLSKKQSHLRTQITNQENEAEIFLTKGNCVMAKNALKKKKTIEQLLSKVEGTMESMEQQLFSIESANLNLETMRAMQEGAKAMKTIHSGLDIDKVDETMDEIREQVELGDEISDAISRPLITGANEVDEDELDEELDMLAQENANQETSKIVNNNVNAAPISENKVSLPSVPSNKIKQSENSVKDGEEEEDEEDEDEKALRELQAEMGL | binds | 
8 | full-length Snf7^(R52E H118C), MTSL-labeled (natural protein, Saccharomyces cerevisiae, UniProt P39929 1-240, looked up, MTSL nitroxide spin label on cysteine 118, Snf7 (Vps32), S. cerevisiae, full length; source: E. coli BL21 or C41, purified (TALON, Superdex-200)) MWSSLFGWTSSNAKNKESPTKAIVRLREHINLLSKKQSHLRTQITNQENEAEIFLTKGNKVMAKNALKKKKTIEQLLSKVEGTMESMEQQLFSIESANLNLETMRAMQEGAKAMKTICSGLDIDKVDETMDEIREQVELGDEISDAISRPLITGANEVDEDELDEELDMLAQENANQETSKIVNNNVNAAPISENKVSLPSVPSNKIKQSENSVKDGEEEEDEEDEDEKALRELQAEMGL | binds | 
9 | full-length Snf7^(R52E G140C), MTSL-labeled (natural protein, Saccharomyces cerevisiae, UniProt P39929 1-240, looked up, MTSL nitroxide spin label on cysteine 140, Snf7 (Vps32), S. cerevisiae, full length; source: E. coli BL21 or C41, purified (TALON, Superdex-200)) MWSSLFGWTSSNAKNKESPTKAIVRLREHINLLSKKQSHLRTQITNQENEAEIFLTKGNKVMAKNALKKKKTIEQLLSKVEGTMESMEQQLFSIESANLNLETMRAMQEGAKAMKTIHSGLDIDKVDETMDEIREQVELCDEISDAISRPLITGANEVDEDELDEELDMLAQENANQETSKIVNNNVNAAPISENKVSLPSVPSNKIKQSENSVKDGEEEEDEEDEDEKALRELQAEMGL | binds | 
10 | B2 | binds | 
11 | full-length Snf7^(R52E R25E H29E K36E) (natural protein, Saccharomyces cerevisiae, UniProt P39929 1-240, looked up, Snf7 (Vps32), S. cerevisiae, full length, charge inversion on α1; source: E. coli BL21 or C41, purified (TALON, Superdex-200)) MWSSLFGWTSSNAKNKESPTKAIVELREEINLLSKEQSHLRTQITNQENEAEIFLTKGNKVMAKNALKKKKTIEQLLSKVEGTMESMEQQLFSIESANLNLETMRAMQEGAKAMKTIHSGLDIDKVDETMDEIREQVELGDEISDAISRPLITGANEVDEDELDEELDMLAQENANQETSKIVNNNVNAAPISENKVSLPSVPSNKIKQSENSVKDGEEEEDEEDEDEKALRELQAEMGL |  | binding result [5]: binds
